# Laboratory results published in patent US20110105397A1, “METHOD FOR TREATING HEART FAILURE WITH STRESSCOPIN-LIKE PEPTIDES” (priority 2009, published 2011).
# Where no end group is shown, it is not given here.
# T1: human corticotrophin releasing hormone receptor type 2 (CRHR2) (human, UniProt Q13324 1-411)
# T1 sequence (looked up): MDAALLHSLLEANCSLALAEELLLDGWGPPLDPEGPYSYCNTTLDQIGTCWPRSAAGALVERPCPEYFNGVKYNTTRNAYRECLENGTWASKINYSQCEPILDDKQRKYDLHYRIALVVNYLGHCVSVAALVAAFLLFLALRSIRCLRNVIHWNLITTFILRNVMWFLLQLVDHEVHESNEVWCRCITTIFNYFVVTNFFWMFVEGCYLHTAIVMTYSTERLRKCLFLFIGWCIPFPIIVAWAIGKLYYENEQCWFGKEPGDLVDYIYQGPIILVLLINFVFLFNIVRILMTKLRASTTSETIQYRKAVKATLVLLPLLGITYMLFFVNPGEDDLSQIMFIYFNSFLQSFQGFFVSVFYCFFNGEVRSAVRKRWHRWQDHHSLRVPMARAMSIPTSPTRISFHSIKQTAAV
# Target: T1, human corticotrophin releasing hormone …
# Experiment: cell-based or functional assay
Binder,Log DR,pA50
TKFTLSLDVCTNIMNLLFNIAKAKNLRAQAAANAHLMAQI-NH2 [Cys-variant stresscopin-like peptide SEQ ID NO: 11],0.82 log10,8.76 -log10(M)
TKFTLSLCVPTNIMNLLFNIAKAKNLRAQAAANAHLMAQI-NH2 [Cys-variant stresscopin-like peptide SEQ ID NO: 9],1.89 log10,7.8 -log10(M)
TKFCLSLDVPTNIMNLLFNIAKAKNLRAQAAANAHLMAQI-NH2 [Cys-variant stresscopin-like peptide SEQ ID NO: 5],0.76 log10,8.93 -log10(M)
TKFTLSLDCPTNIMNLLFNIAKAKNLRAQAAANAHLMAQI-NH2 [Cys-variant stresscopin-like peptide SEQ ID NO: 10],1.3 log10,8.28 -log10(M)
TKFTLSCDVPTNIMNLLFNIAKAKNLRAQAAANAHLMAQI-NH2 [Cys-variant stresscopin-like peptide SEQ ID NO: 8],2.86 log10,~6.82 -log10(M)
TKFTCSLDVPTNIMNLLFNIAKAKNLRAQAAANAHLMAQI-NH2 [Cys-variant stresscopin-like peptide SEQ ID NO: 6],0.61 log10,9.07 -log10(M)
TKFTLCLDVPTNIMNLLFNIAKAKNLRAQAAANAHLMAQI-NH2 [Cys-variant stresscopin-like peptide SEQ ID NO: 7],2.08 log10,7.6 -log10(M)
TKCTLSLDVPTNIMNLLFNIAKAKNLRAQAAANAHLMAQI-NH2 [Cys-variant stresscopin-like peptide SEQ ID NO: 4],1.03 log10,8.65 -log10(M)

# Now from value to binder:
Log DR,pA50,Binder
-0.01 log10,9.59 -log10(M),TKFTLSLDVPTCIMNLLFNIAKAKNLRAQAAANAHLMAQI-NH2 [Cys-variant stresscopin-like peptide SEQ ID NO: 13]
~1.9 log10,~7.64 -log10(M),TKCTLSLDVPTNIMNLLFNIAKAKNLRAQAAANAHLMAQI (NES-PEG (about 20 kDa) on Cys 3; C-terminal amide (-NH2)) [Pegylated Cys-variant stresscopin-like peptide with NES linker and PEG about 20 kDa SEQ ID NO: 57]
~2.12 log10,~7.45 -log10(M),TKFTLSLDCPTNIMNLLFNIAKAKNLRAQAAANAHLMAQI (NES-PEG (about 20 kDa) on Cys 9; C-terminal amide (-NH2)) [Pegylated Cys-variant stresscopin-like peptide with NES linker and PEG about 20 kDa SEQ ID NO: 63]
1.26 log10,8.31 -log10(M),TKFTLSLDVPTCIMNLLFNIAKAKNLRAQAAANAHLMAQI (NES-PEG (about 20 kDa) on Cys 12; C-terminal amide (-NH2)) [Pegylated Cys-variant stresscopin-like peptide with NES linker and PEG about 20 kDa SEQ ID NO: 66]
~2.59 log10,~6.98 -log10(M),TKFTLSLDVCTNIMNLLFNIAKAKNLRAQAAANAHLMAQI (NES-PEG (about 20 kDa) on Cys 10; C-terminal amide (-NH2)) [Pegylated Cys-variant stresscopin-like peptide with NES linker and PEG about 20 kDa SEQ ID NO: 64]
> 3.22 log10,~6.32 -log10(M),TKFTLCLDVPTNIMNLLFNIAKAKNLRAQAAANAHLMAQI (NES-PEG (about 20 kDa) on Cys 6; C-terminal amide (-NH2)) [Pegylated Cys-variant stresscopin-like peptide with NES linker and PEG about 20 kDa SEQ ID NO: 60]
~2.4 log10,~7.14 -log10(M),TKFCLSLDVPTNIMNLLFNIAKAKNLRAQAAANAHLMAQI (NES-PEG (about 20 kDa) on Cys 4; C-terminal amide (-NH2)) [Pegylated Cys-variant stresscopin-like peptide with NES linker and PEG about 20 kDa SEQ ID NO: 58]
~2.32 log10,~7.22 -log10(M),TKFTCSLDVPTNIMNLLFNIAKAKNLRAQAAANAHLMAQI (NES-PEG (about 20 kDa) on Cys 5; C-terminal amide (-NH2)) [Pegylated Cys-variant stresscopin-like peptide with NES linker and PEG about 20 kDa SEQ ID NO: 59]
> 3.32 log10,~6.22 -log10(M),TKFTLSCDVPTNIMNLLFNIAKAKNLRAQAAANAHLMAQI (NES-PEG (about 20 kDa) on Cys 7; C-terminal amide (-NH2)) [Pegylated Cys-variant stresscopin-like peptide with NES linker and PEG about 20 kDa SEQ ID NO: 61]
> 3.48 log10,~6.06 -log10(M),TKFTLSLCVPTNIMNLLFNIAKAKNLRAQAAANAHLMAQI (NES-PEG (about 20 kDa) on Cys 8; C-terminal amide (-NH2)) [Pegylated Cys-variant stresscopin-like peptide with NES linker and PEG about 20 kDa SEQ ID NO: 62]
~2.75 log10,~6.82 -log10(M),TKFTLSLDVPCNIMNLLFNIAKAKNLRAQAAANAHLMAQI (NES-PEG (about 20 kDa) on Cys 11; C-terminal amide (-NH2)) [Pegylated Cys-variant stresscopin-like peptide with NES linker and PEG about 20 kDa SEQ ID NO: 65]
1.72 log10,7.86 -log10(M),TKFTLSLDVPCNIMNLLFNIAKAKNLRAQAAANAHLMAQI-NH2 [Cys-variant stresscopin-like peptide SEQ ID NO: 12]
